Test results from patent publication US20120190819A1 (MEDICAL RESEARCH COUNCIL, published 2012).

T1: carboxymethylated papain on agarose beads (Calbiochem) (UniProt P00784 134-345, carboxymethylated)
T1 construct: also called immobilized papain; papain-agarose beads
T1 sequence (looked up): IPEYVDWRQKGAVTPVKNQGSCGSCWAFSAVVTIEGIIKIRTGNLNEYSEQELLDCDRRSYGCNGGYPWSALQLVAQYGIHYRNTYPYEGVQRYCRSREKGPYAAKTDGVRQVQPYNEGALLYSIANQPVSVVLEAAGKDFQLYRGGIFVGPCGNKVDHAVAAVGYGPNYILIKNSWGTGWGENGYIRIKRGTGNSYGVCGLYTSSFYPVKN


How the values were obtained:
[1] = target: T1, carboxymethylated papain on agarose …; test: papain-agarose pull-down, western blot with anti-SteA
Protocol: Agarose beads carrying carboxymethylated papain (Calbiochem) were washed three times in EB (equilibration buffer: 50 mM sodium phosphate pH 6.5, 0.5M NaCl, 0.1% non-detergent sulfobetaines). The beads were blocked with 1 mg/ml BSA in EB for 30 mins at 4° C. and washed three more times in EB. 300 μg of recombinant SteA or STM AU1 in 1×TBS buffer was diluted into EB to produce a total of volume of 500 μL and incubated with the beads with turning end over end for 90 mins at 4° C. The beads were then washed three times in EB and resuspended in 50 μl of sample buffer for analysis by 12% SDS-PAGE gel and western blotting using an anti-steA monoclonal antibody (C5/2, Maryland Biosciences).

[2] = target: the molecule itself; test: gel filtration after heating to 75° C. (self-association)
Protocol: (§1) To confirm that the engineered scaffold was correctly folded, we used gel filtration chromatography to ask whether we could detect any denatured or dimerized STM in its native form. Recombinant STM AU1 migrated close to its predicted size and similarly to wild type SteA (FIG. 3, panel A). When the protein preparations were heated to 75° C. before gel filtration, a proportion of SteA migrated as a dimer. […] The CD spectra of native SteA at 25° C. and 50° C. and native STM AU1 at 25° C. and 50° C.

[3] = target: T2, SH3 domain of yeast Sho1p (yeast two-hybrid bait, pEG202-Sho1-SH3) (yeast, UniProt P40073 300-367, limits assumed); test: yeast two-hybrid screen, confirmed by interaction mating
T2 construct: domain: SH3 domain; also called Sho1p SH3 domain
T2 sequence (P40073 300-367 limits assumed): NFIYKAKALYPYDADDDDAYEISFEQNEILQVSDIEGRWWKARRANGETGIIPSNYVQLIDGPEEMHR
Source text: (§2) Degenerate oligonucleotide cassettes were made by annealing and amplifying P20 and P21 encoding a biased library designed around the Pbs2p proline rich sequence ([…]) (SEQ ID NO: 33) that interacts with the SH3 domain of Sho1p. Translation of the cassette gives X(L/V/P/A)N(K/R)PLP(P/S/A)LP(L/V/P/A)X (SEQ ID NO: 34). At the DNA level, this oligonucleotide should give rise to a library with a theoretical complexity of 98,304. The cassette was ligated into STM pJG4-5, and grown up in XL10 Gold cells (Stratagene). The midi-prepped (Qiagen) DNA was used to create a yeast library of 6×10⁴ cells in EGY48, theoretically covering 60% of the sequences encoded by the library. These cells were mated with EGY42 cells carrying pEG202-Sho1-SH3, made as described above. Interactors were selected on -UHTL/X-Gal/Gal-Raff plates for 4 days, picked and the plasmids rescued into E. coli KC8 cells. The plasmids were transformed back into EGY48 to confirm interaction with the SH3 domain of Sho1p in EGY42 using an interaction-mating matrix.

[4] = target: the molecule itself; test: gel filtration (self-association, domain-swapped dimer)
Protocol: as §1

[5] = target: the molecule itself; test: SDS-PAGE after 75° C. or ice (self-association)
Protocol: We wished to ascertain whether we could insert peptides into STM without affecting its stability as a protein. We modelled a peptide aptamer by inserting the six residue “AU1” epitope tag (DTYRYI) (SEQ ID NO: 32) into the engineered loop. We wished to retain the thermostability of SteA but abolish its dimerization by domain-swapping, which is enhanced by heating. We incubated recombinant SteA, STM and STM AU1 at 75° C. or on ice for 20 minutes, and removed any denatured protein by centrifugation. […] As expected, this dimeric form is completely abolished in both STM and STM AU1 (FIG. 2A).

[6] = target: T2, SH3 domain of yeast Sho1p (yeast …); test: yeast two-hybrid screen
Source text: as §2

[7] = target: T2, SH3 domain of yeast Sho1p (yeast …); test: yeast two-hybrid interaction mating
Source text: The yeast genome encodes 25 proteins that between them comprise 28 SH3 domains. Each domain, or combination of domains, was cloned as a yeast two hybrid bait, and tested by interaction mating for its ability to recognise AptA. […] The SH3 domain of Bud14 is a self-activating bait, giving rise to a blue colour even when mated to an empty prey plasmid. […] AptA* is the mutant version of AptA where the two proline residues of the PxxP motif have been changed to alanines (PP/AA). STM is the empty scaffold.

| Binder | binding result [3] | binding result [6] | also measured |
| --- | --- | --- | --- |
| STM comprising target peptide AU1 epitope (designed binder, Expressed in E. coli from pET30a(+) with a hexa-histidine tag; also called STM AU1; STM/AU1) MIPWGLSEAKPATPEIQEIVDKVKPQLEEKTNETYGKLEAVQYKTQVDAGTNYYIKVRAGDNKYMHLKVFNGPDTYRYIGPPGQNEDLVLTGYQVDKNKDDELTGF | – | – | binding result [1]: no binding (tested: 300 µg); binding result [2]: no binding |
| STM peptide aptamer 07 (designed binder, Insert (with its GP ends) constrained in STM) MIPWGLSEAKPATPEIQEIVDKVKPQLEEKTNETYGKLEAVQYKTQVDAGTNYYIKVRAGDNKYMHLKVFNGPPNVKPLPALPLMGPLLNKPLPALPLDGPPGQNEDLVLTGYQVDKNKDDELTGF | binds | – | – |
| STM peptide aptamer 20 (designed binder, Insert (with its GP ends) constrained in STM) MIPWGLSEAKPATPEIQEIVDKVKPQLEEKTNETYGKLEAVQYKTQVDAGTNYYIKVRAGDNKYMHLKVFNGPRMNKPLPSLPLGGPAMNKPLPALPLQGPPGQNEDLVLTGYQVDKNKDDELTGF | binds | – | – |
| STM peptide aptamer 08 (designed binder, Insert (with its GP ends) constrained in STM) MIPWGLSEAKPATPEIQEIVDKVKPQLEEKTNETYGKLEAVQYKTQVDAGTNYYIKVRAGDNKYMHLKVFNGPDPNRPLPSLPVTGPYLNKPLPALPVSGPPGQNEDLVLTGYQVDKNKDDELTGF | binds | – | – |
| STM peptide aptamer 17 (designed binder, Insert (with its GP ends) constrained in STM) MIPWGLSEAKPATPEIQEIVDKVKPQLEEKTNETYGKLEAVQYKTQVDAGTNYYIKVRAGDNKYMHLKVFNGPEPNKPLPALPLTGPVLNRPLPPLPRNGPPGQNEDLVLTGYQVDKNKDDELTGF | binds | – | – |
| STM peptide aptamer 11 (designed binder, Insert (with its GP ends) constrained in STM) MIPWGLSEAKPATPEIQEIVDKVKPQLEEKTNETYGKLEAVQYKTQVDAGTNYYIKVRAGDNKYMHLKVFNGPFPNKPLPALPLTGPVLNRPLPPLPRNGPPGQNEDLVLTGYQVDKNKDDELTGF | binds | – | – |
| STM peptide aptamer 10 (designed binder, Insert (with its GP ends) constrained in STM) MIPWGLSEAKPATPEIQEIVDKVKPQLEEKTNETYGKLEAVQYKTQVDAGTNYYIKVRAGDNKYMHLKVFNGPILNKPLPALPLRGPDPNRPLPALPVTGPPGQNEDLVLTGYQVDKNKDDELTGF | binds | – | – |
| STM peptide aptamer 13 (designed binder, Insert (with its GP ends) constrained in STM) MIPWGLSEAKPATPEIQEIVDKVKPQLEEKTNETYGKLEAVQYKTQVDAGTNYYIKVRAGDNKYMHLKVFNGPYLNKPLPSLPLCGPSVNRPLPALPDVGPPGQNEDLVLTGYQVDKNKDDELTGF | binds | – | – |
| wild type Stefin A (human, recombinant) (other, Expressed in E. coli from pET30a(+) with a hexa-histidine tag; also called SteA; Cystatin A) MIPGGLSEAKPATPEIQEIVDKVKPQLEEKTNETYGKLEAVQYKTQVVAGTNYYIKVRAGDNKYMHLKVFKSLPGQNEDLVLTGYQVDKNKDDELTGF | – | – | binding result [4]: binds |
| STM (Stefin A Triple Mutant), recombinant, no insert (designed binder, Expressed in E. coli from pET30a(+) with a hexa-histidine tag; also called STM triple mutant) MIPWGLSEAKPATPEIQEIVDKVKPQLEEKTNETYGKLEAVQYKTQVDAGTNYYIKVRAGDNKYMHLKVFNGPPGQNEDLVLTGYQVDKNKDDELTGF | – | – | binding result [5]: no binding |
| Apt40 (peptide aptamer 040 in truncated STM) (designed binder, Truncated by a frame-shift and an out-of-frame stop codon) MIPWGLSEAKPATPEIQEIVDKVKPQLEEKTNETYGKLEAVQYKTQVDAGTNYYIKVRAGDNKYMHLKVFNGPVENKPLPALPAVGP | – | binds | – |
| STM peptide aptamer 03 (designed binder, Insert (with its GP ends) constrained in STM; also called Apt03) MIPWGLSEAKPATPEIQEIVDKVKPQLEEKTNETYGKLEAVQYKTQVDAGTNYYIKVRAGDNKYMHLKVFNGPDLNKPLPALPVHGPPGQNEDLVLTGYQVDKNKDDELTGF | binds | – | – |
| STM peptide aptamer 05 (designed binder, Insert (with its GP ends) constrained in STM; also called Apt05; Pep05) MIPWGLSEAKPATPEIQEIVDKVKPQLEEKTNETYGKLEAVQYKTQVDAGTNYYIKVRAGDNKYMHLKVFNGPNLNKPLPALPVLGPPGQNEDLVLTGYQVDKNKDDELTGF | binds | – | – |
| Apt34 (peptide aptamer 034 in truncated STM) (designed binder, Truncated by a frame-shift and an out-of-frame stop codon) MIPWGLSEAKPATPEIQEIVDKVKPQLEEKTNETYGKLEAVQYKTQVDAGTNYYIKVRAGDNKYMHLKVFNGPSVNKPLPSLPSLPVYGP | – | binds | – |
| AptA (peptide aptamer A in truncated STM) (designed binder, Scaffold ends at the in-frame stop codon after the 11mer (unconstrained C-terminal peptide); also called PepA; pepA) MIPWGLSEAKPATPEIQEIVDKVKPQLEEKTNETYGKLEAVQYKTQVDAGTNYYIKVRAGDNKYMHLKVFNGPRLNKPLPSLPV | – | binds | – |
| Apt124 (peptide aptamer 124 in truncated STM) (designed binder, Scaffold ends at the in-frame stop codon after the 11mer) MIPWGLSEAKPATPEIQEIVDKVKPQLEEKTNETYGKLEAVQYKTQVDAGTNYYIKVRAGDNKYMHLKVFNGPRGNKPLPALPL | – | binds | – |
| AptA* (AptA with the two prolines of the PxxP motif changed to alanines) (designed binder, also called AptA PP/AA; AxxA mutation of AptA) MIPWGLSEAKPATPEIQEIVDKVKPQLEEKTNETYGKLEAVQYKTQVDAGTNYYIKVRAGDNKYMHLKVFNGPRLNKPLASLAV | – | – | binding result [7]: no binding |
| Apt32 (peptide aptamer 032 in truncated STM) (designed binder, Scaffold ends at the in-frame stop codon after the 11mer; also called Pep32) MIPWGLSEAKPATPEIQEIVDKVKPQLEEKTNETYGKLEAVQYKTQVDAGTNYYIKVRAGDNKYMHLKVFNGPLPNKPLPSLPL | – | binds | – |
| Apt94 (peptide aptamer 094 in truncated STM) (designed binder, Truncated by a frame-shift and an out-of-frame stop codon) MIPWGLSEAKPATPEIQEIVDKVKPQLEEKTNETYGKLEAVQYKTQVDAGTNYYIKVRAGDNKYMHLKVFNGPANKPLPALPALGSAVE | – | binds | – |
